The text below walks through data of article PMC10477244.

The target of this series is SARS-CoV-2 virus particles (spike presumed target) (SARS-CoV-2 (isolate not in material)) (UniProt P0DTC2).

In turn, “GGTATTGAGGGTCGCATCGTAATAGCGCATGTTGTGAGGCAGGCGCGAATCAGCTCGTGAGATGGCTCTAACTCTCCTCT [aptamer T (Apt@T2)]” registered a binding signal of 0.74 A450.
“GGTATTGAGGGTCGCATCGTTACTGGACCAAACAGCACAAAGGACGCCCATAAACCCGGATGGCTCTAACTCTCCTCT [aptamer R (Apt@R2)]” had a binding signal of 0.83 A450.
